Test results published in article PMC2933578, “Mutational analysis of an archaeal minichromosome maintenance protein exterior hairpin reveals critical residues for helicase activity and DNA binding” (BMC Molecular Biology, 2010).
Where a chain is given by its changes, count along the chain named. Names and notes keep the numbering of the source.

Legend:
[1] = molecular target: ssoMCM mutant M7 (ED327AA) (Sulfolobus solfataricus) (UniProt Q9UXG1); assay: SEC; Superose 6 size exclusion column, 250 mM NaCl; ~0.5 mg of protein; markers ferritin (440 kD) and aldolase (158 kD); self-association to the hexamer
[2] = substrate: Nc1ncnc2c1ncn2[C@@H]1O[C@H](COP(=O)(O)OP(=O)(O)OP(=O)(O)O)[C@@H](O)[C@H]1O; assay: EnzChek phosphate release ATPase assay; format: biochemical, Saccharolobus solfataricus; conditions: no DNA, per monomeric MCM subunit, unit nM
Text: EnzChek phosphate release ATPase assay on ssoMCM

[3] = molecular target: the molecule itself; assay: SEC; Superose 6 size exclusion column, 250 mM NaCl; ~0.5 mg of protein; markers ferritin (440 kD) and aldolase (158 kD); self-association to the hexamer
[4] = mutant M1: text gives lysine K323, Table 2 prints R323A

With “ssoMCM mutant M7 (ED327AA) (from UniProt Q9UXG1 1-686) (enzyme)” as the molecule, how does the stoichiometry N [1] read?
The stoichiometry N was 6.

B1: ssoMCM mutant M6 (D327A) (enzyme, Sulfolobus solfataricus, UniProt Q9UXG1 1-686, looked up)
chain: MEIPSKQIDYRDVFIEFLTTFKGNNNQNKYIERINELVAYRKKSLIIEFSDVLSFNENLAYEIINNTKIILPILEGALYDHILQLDPTYQRDIEKVHVRIVGIPRVIELRKIRSTDIGKLITIDGILVKVTPVKERIYKATYKHIHPDCMQEFEWPEDEEMPEVLEMPTICPKCGKPGQFRLIPEKTKLIDWQKAVIQERPEEVPSGQLPRQLEIILEDDLVDSARPGDRVKVTGILDIKQDSPVKRGSRAVFDIYMKVSSIEVSQKVLDEVIISEEDEKKIKDLAKDPWIRDRIISSIAPSIYGHWELKEALALALFGGVPKVLEATRIRGDIHILIIGDPGTAKSQMLQFISRVAPRAVYTTGKGSTAAGLTAAVVREKGTGEYYLEAGALVLADGGIAVIDEIDKMRDEDRVAIHEAMEQQTVSIAKAGIVAKLNARAAVIAAGNPKFGRYISERPVSDNINLPPTILSRFDLIFILKDQPGEQDRELANYILDVHSGKSTKNIIDIDTLRKYIAYARKYVTPKITSEAKNLITDFFVEMRKKSSETPDSPILITPRQLEALIRISEAYAKMALKAEVTREDAERAINIMRLFLESVGVDMESGKIDIDTIMTGKPKSAREKMMKIIEIIDSLAVSSECAKVKDILKEAQQVGIEKSNIEKLLTDMRKSGIIYEAKPECYKKV
notes: MCM of Sulfolobus solfataricus with D327A; source: cloned and purified (Resource Q anion exchange, size-exclusion chromatography) as described previously [15]
What does the source list for B1?
Km ([2]; mutant M6): 100 ± 20 nM; kcat ([2]; mutant M6): 0.0383 ± 0.00167 s⁻¹; stoichiometry N [3]: 6

B2: ssoMCM mutant M9 (R331A) (enzyme, Sulfolobus solfataricus, UniProt Q9UXG1 1-686, looked up)
chain: B1 chain with A327D, R331A
notes: MCM of Sulfolobus solfataricus with R331A; source: cloned and purified (Resource Q anion exchange, size-exclusion chromatography) as described previously [15]
B2 was tested. Which “stoichiometry N” value [3] did it give?
Its value is 6.

B3: ssoMCM mutant M2 (V324A) (enzyme, Sulfolobus solfataricus, UniProt Q9UXG1 1-686, looked up)
chain: B1 chain with V324A, A327D
notes: MCM of Sulfolobus solfataricus with V324A; source: cloned and purified (Resource Q anion exchange, size-exclusion chromatography) as described previously [15]
What does the source list for B3?
Km ([2]; mutant M2): 120 ± 20 nM; kcat ([2]; mutant M2): 0.04 ± 0.00167 s⁻¹; stoichiometry N [3]: 6

B4: ssoMCM mutant M4 (VL324AA) (enzyme, Sulfolobus solfataricus, UniProt Q9UXG1 1-686, looked up)
chain: B1 chain with V324A, L325A, A327D
notes: MCM of Sulfolobus solfataricus with the double mutation VL324AA (V324 and L325 to alanine); source: cloned and purified (Resource Q anion exchange, size-exclusion chromatography) as described previously [15]
Which results are given for B4?
Km ([2]; mutant M4, printed VL324AA): 230 ± 10 nM; kcat ([2]; mutant M4, printed VL324AA): 0.065 ± 0.00167 s⁻¹; stoichiometry N [3]: 6

B5: Sulfolobus solfataricus MCM (minichromosome maintenance protein), wild type (enzyme, UniProt Q9UXG1 1-686, looked up)
chain: B1 chain with A327D
notes: MCM of Sulfolobus solfataricus, wild type; also called ssoMCM; WT; source: cloned and purified (Resource Q anion exchange, size-exclusion chromatography) as described previously [15]
With B5 as the molecule, how does the Km [2] read?
Its Km is 170 ± 20 nM.

And the kcat [2]?
Its kcat is 0.0517 ± 0.00167 s⁻¹.

And the “stoichiometry N” value [3]?
The value was 6.

B6: ssoMCM mutant M1 (K323A; printed R323A in Table 2) (enzyme, Sulfolobus solfataricus, UniProt Q9UXG1 1-686, looked up)
chain: B1 chain with K323A, A327D
notes: MCM of Sulfolobus solfataricus with the mutation of M1; also called K323 (M1); source: cloned and purified (Resource Q anion exchange, size-exclusion chromatography) as described previously [15]
Which results are given for B6?
Km [2, 4]: 140 ± 30 nM; kcat [2, 4]: 0.03 ± 0.00167 s⁻¹; stoichiometry N [3]: 6

B7: ssoMCM mutant M3 (L325A) (enzyme, Sulfolobus solfataricus, UniProt Q9UXG1 1-686, looked up)
chain: B1 chain with L325A, A327D
notes: MCM of Sulfolobus solfataricus with L325A; source: cloned and purified (Resource Q anion exchange, size-exclusion chromatography) as described previously [15]
How did the Km ([2]; mutant M3) turn out when B7 was run?
The Km was 270 ± 40 nM.

And the kcat ([2]; mutant M3)?
The kcat was 0.0783 ± 0.005 s⁻¹.

And the “stoichiometry N” value [3]?
The value was 6.

B8: ssoMCM mutant M8 (R329A) (enzyme, Sulfolobus solfataricus, UniProt Q9UXG1 1-686, looked up)
chain: B1 chain with A327D, R329A
notes: MCM of Sulfolobus solfataricus with R329A; source: cloned and purified (Resource Q anion exchange, size-exclusion chromatography) as described previously [15]
With B8 as the molecule, how does the Km ([2]; mutant M8) read?
The Km was 170 ± 40 nM.

And the kcat ([2]; mutant M8)?
Its kcat is 0.03 ± 0.00167 s⁻¹.

What about the “stoichiometry N” value [3] of the same molecule?
Its value is 6.

B9: ssoMCM mutant M10 (K346A, Walker A mutant) (enzyme, Sulfolobus solfataricus, UniProt Q9UXG1 1-686, looked up)
chain: B1 chain with A327D, K346A
notes: MCM of Sulfolobus solfataricus with K346A (Walker A lysine); source: cloned and purified (Resource Q anion exchange, size-exclusion chromatography) as described previously [15]
B9 was tested. Which “stoichiometry N” value [3] did it give?
The value was 6.

B10: ssoMCM mutant M5 (E326A) (enzyme, Sulfolobus solfataricus, UniProt Q9UXG1 1-686, looked up)
chain: B1 chain with E326A, A327D
notes: MCM of Sulfolobus solfataricus with E326A; source: cloned and purified (Resource Q anion exchange, size-exclusion chromatography) as described previously [15]
With B10 as the molecule, how does the “stoichiometry N” value [3] read?
Its value is 6.
